# Measurements as given in paper PMC4333373, “Specific and non-specific interactions of ParB with DNA: implications for chromosome segregation” (Nucleic Acids Research, 2015).
# Target: the molecule itself
# Assay: SEC-MALS; ParB alone, no DNA; 9 or 80 uM ParB2; Superdex 200 in 50 mM Hepes-KOH, 150 mM KCl, 2.5 mM MgCl2, 2 mM beta-mercaptoethanol; monomer and dimer
protein,measurement,value
"Bacillus subtilis ParB (natural protein, UniProt P26497 1-282, looked up, ParB (Spo0J) of Bacillus subtilis 168; the parB gene was amplified from genomic DNA and cloned into pET28a(+); native (untagged) protein; intact monomer has a theoretical weight of 32.2 kDa; Untagged; also called Spo0J; ParB2 (the dimer); source: E. coli BL21 (DE3), pET28a-ParB, purified (ammonium sulphate cuts, HiTrap Heparin, Mono S; some preparations also Superdex S75)) MAKGLGKGINALFNQVDLSEETVEEIKIADLRPNPYQPRKHFDDEALAELKESVLQHGILQPLIVRKSLKGYDIVAGERRFRAAKLAGLDTVPAIVRELSEALMREIALLENLQREDLSPLEEAQAYDSLLKHLDLTQEQLAKRLGKSRPHIANHLRLLTLPENIQQLIAEGTLSMGHGRTLLGLKNKNKLEPLVQKVIAEQLNVRQLEQLIQQLNQNVPRETKKKEPVKDAVLKERESYLQNYFGTTVNIKRQKKKGKIEIEFFSNEDLDRILELLSERES",stoichiometry N,2
